Experimental data: the Immune Epitope Database (IEDB)
Each block holds one sequence with its values, some of them ahead of it.

Legend:
HLA-A*03:01 = assay: IEDB peptide-MHC binding, purified MHC/direct/fluorescence; filed as Kd, often an IC50 or EC50 that approximates it; ≥ and ≤ were set here for values at or beyond the usual limits of such assays
HLA-B*58:01 [1] = assay: as above
HLA-B*27:05 = assay: as above
HLA-B*15:01 [2] = assay: as above
HLA-B*44:02 = assay: as above
HLA-A*30:01 = assay: as above
HLA-B*35:01 = assay: as above
HLA-A*26:01 = assay: as above
HLA-A*11:01 = assay: as above
HLA-A*69:01 = assay: as above
HLA-A*31:01 = assay: as above
HLA-A*24:03 = assay: as above
HLA-A*02:01 [3] = assay: as above
HLA-A*01:01 = assay: as above
HLA-B*08:01 = assay: as above
HLA-B*40:01 [4] = assay: as above
HLA-B*07:02 = assay: as above
HLA-B*58:01 [5] = assay: IEDB peptide-MHC binding, purified MHC/competitive/fluorescence; filed as Kd, often an IC50 or EC50 that approximates it; ≥ and ≤ were set here for values at or beyond the usual limits of such assays; settings: source organism: Bacillus anthracis str. A0488
HLA-B*15:01 [6] = assay: IEDB peptide-MHC binding, purified MHC/competitive/fluorescence; ≥ and ≤ were set here for values at or beyond the usual limits of such assays
HLA-A*02:01 [7] = assay: as above
HLA-A*24:02 = assay: as above; settings: source organism: Zaire ebolavirus
HLA-B*40:01 [8] = assay: IEDB peptide-MHC binding, purified MHC/competitive/fluorescence; filed as Kd, often an IC50 or EC50 that approximates it; ≥ and ≤ were set here for values at or beyond the usual limits of such assays; settings: source organism: Influenza A virus (A/parakeet/Chiba/1/97(H9N2))
[9] = source organism: Vibrio vulnificus
[10] = source organism: Zaire ebolavirus
[11] = source organism: Vibrio parahaemolyticus
[12] = source organism: Giardia lamblia ATCC 50803
[13] = source organism: Vaccinia virus
[14] = source organism: Pseudomonas savastanoi
[15] = source organism: Pseudomonas aeruginosa
[16] = source organism: Corynebacterium glutamicum

Sequence: KVMALPIPH
Kd (HLA-A*03:01; [9]): 0.174 µM
Kd (HLA-B*58:01 [1]; [9]): ≥ 20 µM
Kd (HLA-B*27:05; [9]): ≥ 20 µM
Kd (HLA-B*15:01 [2]; [9]): 0.452 µM
Kd (HLA-B*44:02; [9]): ≥ 20 µM
Kd (HLA-A*30:01; [9]): 5.28 µM
Kd (HLA-B*35:01; [9]): 0.374 µM
Kd (HLA-A*26:01; [9]): ≥ 20 µM
Kd (HLA-A*11:01; [9]): 0.0247 µM
Kd (HLA-A*69:01; [9]): ≥ 20 µM
Kd (HLA-A*31:01; [9]): 0.136 µM
Kd (HLA-A*24:03; [9]): ≥ 20 µM
Kd (HLA-A*02:01 [3]; [9]): ≥ 20 µM
Kd (HLA-A*01:01; [9]): ≥ 20 µM
Kd (HLA-B*08:01; [9]): ≥ 20 µM
Kd (HLA-B*40:01 [4]; [9]): ≥ 20 µM
Kd (HLA-B*07:02; [9]): 9.25 µM

Sequence: MSLMTGEQF
Kd (HLA-B*58:01 [5]): 0.0165 µM

Sequence: QLIIQAFEA
IC50 (HLA-B*15:01 [6]; [10]): ≥ 720 µM
IC50 (HLA-A*02:01 [7]; [10]): 0.884 µM

Sequence: RATTELRTF
IC50 (HLA-A*24:02): 0.6 µM
IC50 (HLA-B*15:01 [6]; [10]): 55.5 µM

Sequence: RTHTLRDAK
Kd (HLA-A*03:01; [11]): 0.93 µM
Kd (HLA-B*58:01 [1]; [11]): ≥ 20 µM
Kd (HLA-B*27:05; [11]): ≥ 20 µM
Kd (HLA-A*30:01; [11]): 0.0209 µM
Kd (HLA-A*26:01; [11]): ≥ 20 µM
Kd (HLA-A*11:01; [11]): 0.0535 µM
Kd (HLA-A*69:01; [11]): ≥ 20 µM
Kd (HLA-A*31:01; [11]): 0.134 µM
Kd (HLA-A*24:03; [11]): 0.472 µM
Kd (HLA-A*02:01 [3]; [11]): ≥ 20 µM
Kd (HLA-A*01:01; [11]): ≥ 20 µM
Kd (HLA-B*08:01; [11]): ≥ 20 µM
Kd (HLA-B*40:01 [4]; [11]): ≥ 20 µM
Kd (HLA-B*07:02; [11]): ≥ 20 µM

Sequence: RTRFFCIPK
Kd (HLA-A*03:01; [12]): 0.0273 µM
Kd (HLA-B*58:01 [1]; [12]): ≥ 20 µM
Kd (HLA-B*27:05; [12]): 0.321 µM
Kd (HLA-B*15:01 [2]; [12]): ≥ 10 µM
Kd (HLA-B*44:02; [12]): ≥ 20 µM
Kd (HLA-A*30:01; [12]): 0.00137 µM
Kd (HLA-A*26:01; [12]): ≥ 20 µM
Kd (HLA-A*11:01; [12]): 0.0209 µM
Kd (HLA-A*69:01; [12]): ≥ 20 µM
Kd (HLA-A*31:01; [12]): 0.0182 µM
Kd (HLA-A*24:03; [12]): ≥ 20 µM
Kd (HLA-A*02:01 [3]; [12]): 17.4 µM
Kd (HLA-A*01:01; [12]): ≥ 20 µM
Kd (HLA-B*08:01; [12]): ≥ 20 µM
Kd (HLA-B*40:01 [4]; [12]): ≥ 20 µM
Kd (HLA-B*07:02; [12]): ≥ 20 µM

Sequence: SQYVDDANL
IC50 (HLA-B*15:01 [6]; [13]): ≥ 404 µM
IC50 (HLA-A*02:01 [7]; [13]): 45.4 µM

Kd (HLA-A*03:01; [14]): ≥ 20 µM
Kd (HLA-B*58:01 [1]; [15]): 6.85 µM
Kd (HLA-B*27:05; [14]): ≥ 20 µM
Kd (HLA-B*15:01 [2]; [15]): ≥ 20 µM
Kd (HLA-A*30:01; [15]): ≥ 10 µM
Kd (HLA-A*11:01; [15]): 5.12 µM
Kd (HLA-A*69:01; [14]): ≥ 20 µM
Kd (HLA-A*24:03; [15]): 3.2 µM
Kd (HLA-A*02:01 [3]; [14]): ≥ 20 µM
Kd (HLA-A*01:01; [14]): ≥ 20 µM
Kd (HLA-B*08:01; [14]): ≥ 20 µM
Kd (HLA-B*40:01 [4]; [14]): ≥ 20 µM
Kd (HLA-B*07:02; [14]): ≥ 20 µM
Sequence: TYYPQVVLG

Sequence: VETYVLSII
Kd (HLA-B*40:01 [8]): 0.013 µM

Kd (HLA-A*03:01; [16]): ≥ 20 µM
Kd (HLA-B*58:01 [1]; [16]): ≥ 20 µM
Kd (HLA-B*27:05; [16]): ≥ 20 µM
Kd (HLA-B*15:01 [2]; [16]): 0.443 µM
Kd (HLA-A*30:01; [16]): ≥ 20 µM
Kd (HLA-B*35:01; [16]): 0.777 µM
Kd (HLA-A*26:01; [16]): ≥ 20 µM
Kd (HLA-A*11:01; [16]): ≥ 20 µM
Kd (HLA-A*69:01; [16]): ≥ 20 µM
Kd (HLA-A*31:01; [16]): ≥ 20 µM
Kd (HLA-A*24:03; [16]): ≥ 20 µM
Kd (HLA-A*02:01 [3]; [16]): ≥ 20 µM
Kd (HLA-A*01:01; [16]): ≥ 20 µM
Kd (HLA-B*08:01; [16]): ≥ 20 µM
Kd (HLA-B*40:01 [4]; [16]): 14.3 µM
Sequence: YELLRYNEY
